According to the supplement of paper PMC9112550, “Optimization of the antimicrobial peptide Bac7 by deep mutational scanning” (BMC Biology, 2022):

tested on: Escherichia coli TOP10; assay: shrunken log2 fold change of peptide-encoding DNA abundance (4.5 h post-induction vs induction); higher = less antimicrobial activity (less host growth inhibition); conditions: time post-induction: 4.5 h; library: site-saturation at positions 5, 18, 19, 20
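Also: peptides expressed intracellularly from a pBAD plasmid library in pooled LB shake-flask culture, induced with 0.3% L-arabinose, DNA abundance read by NGS, three biological replicates, DESeq2 with apeglm shrinkage.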

Row | Sequence | shrunken log2 fold change
1 | RRIRKRPPRLPRPRPRPHPQPRP | 0.223
2 | RRIRYRPPRLPRPRPRPPEPPRP | 0.35
3 | RRIRTRPPRLPRPRPRPLGSPRP | 0.0751
4 | RRIRIRPPRLPRPRPRPNAKPRP | 0.0022
5 | RRIRYRPPRLPRPRPRPYSCPRP | -0.344
6 | RRIRWRPPRLPRPRPRPDVDPRP | -0.0413
7 | RRIRGRPPRLPRPRPRPQMKPRP | 0.29
8 | RRIRCRPPRLPRPRPRPKDLPRP | -0.46
9 | RRIRMRPPRLPRPRPRPYDKPRP | -0.351
10 | RRIRVRPPRLPRPRPRPERKPRP | 0.111
11 | RRIRIRPPRLPRPRPRPWEPPRP | -0.146
12 | RRIRVRPPRLPRPRPRPWSGPRP | -0.507
13 | RRIRARPPRLPRPRPRPFFWPRP | 0.321
14 | RRIRSRPPRLPRPRPRPWKFPRP | -0.176
15 | RRIRQRPPRLPRPRPRPTLCPRP | 0.00185
16 | RRIRLRPPRLPRPRPRPWMIPRP | -0.0928
17 | RRIRSRPPRLPRPRPRPHRMPRP | -0.697
18 | RRIRARPPRLPRPRPRPEGPPRP | 0.577
19 | RRIRHRPPRLPRPRPRPLPCPRP | -0.0645
20 | RRIRIRPPRLPRPRPRPANFPRP | -0.554
21 | RRIRPRPPRLPRPRPRPIRFPRP | -0.119
22 | RRIRPRPPRLPRPRPRPDDRPRP | 0.162
23 | RRIRYRPPRLPRPRPRPTKLPRP | -0.683
24 | RRIRWRPPRLPRPRPRPEWLPRP | 0.803
25 | RRIRARPPRLPRPRPRPWYFPRP | -0.332

Row | Sequence | shrunken log2 fold change
26 | RRIRLRPPRLPRPRPRPVSHPRP | 0.0743
27 | RRIRNRPPRLPRPRPRPHLFPRP | -0.0208
28 | RRIRPRPPRLPRPRPRPTIGPRP | -0.128
29 | RRIRCRPPRLPRPRPRPRWQPRP | 0.0261
30 | RRIRFRPPRLPRPRPRPGYTPRP | -0.427
31 | RRIRTRPPRLPRPRPRPGSGPRP | 0.344
32 | RRIRGRPPRLPRPRPRPLRIPRP | 0.175
33 | RRIRIRPPRLPRPRPRPIIYPRP | -0.396
34 | RRIRPRPPRLPRPRPRPGWMPRP | -0.0745
35 | RRIRLRPPRLPRPRPRPHWWPRP | 0.148
36 | RRIRDRPPRLPRPRPRPNRKPRP | -0.355
37 | RRIRTRPPRLPRPRPRPHSRPRP | 0.0646
38 | RRIRNRPPRLPRPRPRPSKSPRP | -0.227
39 | RRIRWRPPRLPRPRPRPIVFPRP | -0.125
40 | RRIRIRPPRLPRPRPRPLQCPRP | 0.0339
41 | RRIRSRPPRLPRPRPRPRPQPRP | 0.72
42 | RRIRVRPPRLPRPRPRPGVCPRP | 0.186
43 | RRIRVRPPRLPRPRPRPYGSPRP | -0.409
44 | RRIRTRPPRLPRPRPRPAHIPRP | 0.0726
45 | RRIRPRPPRLPRPRPRPGISPRP | -0.155
46 | RRIRMRPPRLPRPRPRPPGAPRP | 2.06
47 | RRIRYRPPRLPRPRPRPFIIPRP | -1.23
48 | RRIRPRPPRLPRPRPRPFQSPRP | 0.0035
49 | RRIRMRPPRLPRPRPRPTEEPRP | -0.000967
50 | RRIRIRPPRLPRPRPRPYMFPRP | -0.892

Row | Sequence | shrunken log2 fold change
51 | RRIRFRPPRLPRPRPRPNFRPRP | 0.157
52 | RRIRNRPPRLPRPRPRPHYIPRP | -0.842
53 | RRIRKRPPRLPRPRPRPWQGPRP | 0.0142
54 | RRIRARPPRLPRPRPRPAIKPRP | 0.206
55 | RRIRIRPPRLPRPRPRPDDKPRP | -0.266
56 | RRIRIRPPRLPRPRPRPPVEPRP | -0.0536
57 | RRIRGRPPRLPRPRPRPERKPRP | 0.92
58 | RRIRCRPPRLPRPRPRPGEKPRP | 0.0653
59 | RRIRVRPPRLPRPRPRPTFKPRP | -0.152
60 | RRIRWRPPRLPRPRPRPGEWPRP | 0.162
61 | RRIRYRPPRLPRPRPRPVFQPRP | -0.503
62 | RRIRFRPPRLPRPRPRPVDKPRP | -0.022
63 | RRIRQRPPRLPRPRPRPFMEPRP | 0.212
64 | RRIRYRPPRLPRPRPRPHPTPRP | -0.289
65 | RRIRHRPPRLPRPRPRPYTLPRP | -0.611
66 | RRIRERPPRLPRPRPRPIDCPRP | -0.409
67 | RRIRMRPPRLPRPRPRPGAGPRP | 1.22
68 | RRIRDRPPRLPRPRPRPQCLPRP | 0.0413
69 | RRIRQRPPRLPRPRPRPHWKPRP | -0.0878
70 | RRIRQRPPRLPRPRPRPWFAPRP | -0.16
71 | RRIRMRPPRLPRPRPRPWKAPRP | 0.0518
72 | RRIRSRPPRLPRPRPRPRTVPRP | 0.106
73 | RRIRIRPPRLPRPRPRPMIRPRP | -0.511
74 | RRIRRRPPRLPRPRPRPGQPPRP | 0.262
75 | RRIRMRPPRLPRPRPRPKGMPRP | 1.37
